Measurements from patent US20250145697A1 (WASHINGTON UNIVERSITY, published 2025).

T1: ApoE4 amino acids 1-132, expressed on yeast (human, UniProt P02649 19-150)
T1 construct: with myc tag, on yeast cells; range counts on the mature protein; also called up to helix 3; not shown: myc tag and yeast surface-display partner
T1 chain: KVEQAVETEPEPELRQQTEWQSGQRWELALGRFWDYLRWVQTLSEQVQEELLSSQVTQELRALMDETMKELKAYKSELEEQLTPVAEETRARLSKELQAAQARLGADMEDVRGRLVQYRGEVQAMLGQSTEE

T2: ApoE4 amino acids 1-164, expressed on yeast (human, UniProt P02649 19-182)
T2 construct: with myc tag, on yeast cells; range counts on the mature protein; also called up to helix 4; not shown: myc tag and yeast surface-display partner
T2 chain: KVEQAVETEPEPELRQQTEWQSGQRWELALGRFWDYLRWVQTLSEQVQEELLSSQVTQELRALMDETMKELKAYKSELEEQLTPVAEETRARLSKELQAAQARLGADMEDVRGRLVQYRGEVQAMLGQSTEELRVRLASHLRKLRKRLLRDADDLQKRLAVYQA

T3: ApoE4 amino acids 1-210, expressed on yeast (human, UniProt P02649 19-228)
T3 construct: with myc tag, on yeast cells; range counts on the mature protein; also called N terminal domain; not shown: myc tag and yeast surface-display partner
T3 chain: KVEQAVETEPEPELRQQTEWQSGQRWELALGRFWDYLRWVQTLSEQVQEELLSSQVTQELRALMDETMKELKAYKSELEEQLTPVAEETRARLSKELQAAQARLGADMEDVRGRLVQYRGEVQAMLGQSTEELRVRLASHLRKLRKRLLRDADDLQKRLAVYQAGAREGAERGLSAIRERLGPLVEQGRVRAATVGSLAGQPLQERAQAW

T4: ApoE4 amino acids 24-125, expressed on yeast (human, UniProt P02649 42-143)
T4 construct: with myc tag, on yeast cells; range counts on the mature protein; also called helix1 + 2 + 3
T4 chain: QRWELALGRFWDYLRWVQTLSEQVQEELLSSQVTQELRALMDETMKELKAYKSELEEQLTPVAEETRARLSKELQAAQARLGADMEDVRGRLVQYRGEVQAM

T5: ApoE4 amino acids 24-164, expressed on yeast (human, UniProt P02649 42-182)
T5 construct: with myc tag, on yeast cells; range counts on the mature protein; also called helix1 + 2 + 3 + 4
T5 chain: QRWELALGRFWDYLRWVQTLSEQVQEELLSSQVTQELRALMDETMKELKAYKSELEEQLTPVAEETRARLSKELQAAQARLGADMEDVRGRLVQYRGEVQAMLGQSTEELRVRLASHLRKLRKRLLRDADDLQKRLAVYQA

T6: ApoE4 amino acids 54-164, expressed on yeast (human, UniProt P02649 72-182)
T6 construct: with myc tag, on yeast cells; expression in yeast printed as Low; range counts on the mature protein; also called helix2 + 3 + 4
T6 chain: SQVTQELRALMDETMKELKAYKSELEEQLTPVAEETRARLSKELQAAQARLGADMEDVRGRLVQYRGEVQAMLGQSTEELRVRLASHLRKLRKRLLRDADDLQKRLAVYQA

T7: murine ApoE (mouse, UniProt P08226 19-311)
T7 sequence (looked up): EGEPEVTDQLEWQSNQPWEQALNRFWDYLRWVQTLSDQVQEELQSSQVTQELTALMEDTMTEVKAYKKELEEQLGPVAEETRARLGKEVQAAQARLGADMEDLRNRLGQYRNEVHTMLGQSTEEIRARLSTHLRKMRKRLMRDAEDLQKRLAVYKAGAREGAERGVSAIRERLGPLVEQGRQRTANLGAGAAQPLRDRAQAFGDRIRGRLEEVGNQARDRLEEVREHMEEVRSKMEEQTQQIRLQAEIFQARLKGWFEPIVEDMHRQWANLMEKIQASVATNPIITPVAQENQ


Columns and labels:
[1] = molecular target: T1, ApoE4 amino acids 1-132, expressed on …; assay: yeast display of myc-tagged ApoE4 fragment, antibody staining
Procedure: (§1) Epitope binding of various anti-ApoE antibodies was evaluated multiple ways. Different sequences of human ApoE were expressed on the surface of yeast by yeast display using different plasmids. Different anti-ApoE antibodies were then assessed to determine binding to the different ApoE sequences by immunofluorescence of the yeast cell surface (Table 4). Because none of the anti-ApoE antibodies tested here recognize murine ApoE, the epitope was further narrowed down by comparison of the murine and human ApoE sequences as shown in Tables 4 and 5. DNA constructs containing different regions of ApoE4 with myc tag were transformed into yeast cells. Yeast cells were incubated with HJ15x to detect binding or anti-myc antibody to detect expression.

[2] = molecular target: T2, ApoE4 amino acids 1-164, expressed on …; assay: as above
Procedure: as §1

[3] = molecular target: T3, ApoE4 amino acids 1-210, expressed on …; assay: as above
Procedure: as §1

[4] = molecular target: T4, ApoE4 amino acids 24-125, expressed on …; assay: as above
Procedure: as §1

[5] = molecular target: T5, ApoE4 amino acids 24-164, expressed on …; assay: as above
Procedure: as §1

[6] = molecular target: T6, ApoE4 amino acids 54-164, expressed on …; assay: as above
Procedure: as §1

[7] = molecular target: T8, recombinant alipidated human ApoE4 (human, UniProt P02649 19-317); assay: direct ELISA on coated recombinant alipidated ApoE (0.5 ug/ml)
T8 construct: mature; full length recombinant protein made in E. coli or bought; biotinylated for SPR; position 112 is counted on the mature protein, not on the precursor entry; also called recApoE; non-lipidated ApoE4
Procedure: (§2) ELISA dose response curves were generated for several anti-ApoE antibodies. Briefly, plates were coated overnight with full length recombinant alipidated ApoE2, ApoE3, or ApoE4 (0.5 μg/ml). The following days, plates were washed, blocked and then incubated with an anti-ApoE antibody. A goat, anti-mouse IgG-HRP antibody was used for secondary detection. Recombinant alipidated ApoE was either expressed solubly in E. coli and then purified, or purchased from a commercial supplier.

[8] = molecular target: T9, recombinant alipidated human ApoE3 (human, UniProt P02649 19-317); assay: as above
T9 construct: mature; full length recombinant protein made in E. coli or bought
Procedure: as §2

[9] = molecular target: T10, recombinant alipidated human ApoE2 (human, UniProt P02649 19-317); assay: as above
T10 construct: mature; full length recombinant protein made in E. coli or bought
Procedure: as §2

[10] = molecular target: T8, recombinant alipidated human ApoE4; assay: SPR (Biacore T200), biotinylated ApoE4 captured on anti-biotin mAb chip, antibody injected, 1:1 fit
Procedure: The affinity of several anti-ApoE antibodies for ApoE4 was determined by surface plasmon resonance using a BIAcore T200. Anti-biotin monoclonal mouse antibody was immobilized on a Biacore Series S CM5 sensor chip. Biotinylated recombinant alipidated ApoE4 was then captured on to the chip. Serial dilutions of each antibody were injected at a flow rate of 30 μl/min. Each sample was analyzed, for example, with 3-minute association and 10-minute dissociation. After each injection the chip was regenerated using 3 M MgCl₂ or another appropriate buffer. Binding response was corrected by subtracting the response units (RUs) from a flow cell capturing an irrelevant IgG at similar density. A 1:1 Languir model of simultaneous fitting of Kₒₙ and Koff was used for kinetics analysis. Recombinant alipidated ApoE4 was either expressed in soluble form in E. coli and then purified, or purchased from a commercial supplier.

[11] = molecular target: T7, murine ApoE; assay: not described

T8 sequence (P02649 19-317 C130R): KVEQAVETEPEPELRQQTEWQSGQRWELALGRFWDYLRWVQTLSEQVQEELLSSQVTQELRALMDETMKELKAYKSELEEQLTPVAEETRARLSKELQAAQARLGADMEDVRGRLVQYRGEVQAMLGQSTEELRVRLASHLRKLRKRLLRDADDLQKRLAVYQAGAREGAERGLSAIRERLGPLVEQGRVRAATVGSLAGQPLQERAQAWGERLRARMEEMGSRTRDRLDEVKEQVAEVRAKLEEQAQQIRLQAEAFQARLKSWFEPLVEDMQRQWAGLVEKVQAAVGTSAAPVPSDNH
T9 sequence (P02649 19-317): as the sequence (P02649 19-317 C130R) above, with R112C counted along it
T10 sequence (P02649 19-317 R176C): as the sequence (P02649 19-317 C130R) above, with R112C, R158C counted along it

Row | binding result [1] | binding result [2] | binding result [3] | binding result [4] | binding result [5] | binding result [6] | EC50 [7] [pM] | EC50 [8] [pM] | EC50 [9] [pM] | Kd [10] [pM] | koff [10] [s⁻¹] | kon [10] [M⁻¹ s⁻¹] | binding result [11] | Binder
1 | binds | binds | binds | binds | binds | binds | 40 | 50 | 30 | 670000 | 0.00528 | 7880 | – | HJ1526 (antibody, V domains shown, murine monoclonal antibody from hybridoma) VH: QVQLQQPGTALVKPGASVKLSCKSSGYTFTDYWVHWVKQRPGQGLEWIGNINPRNGGINYNENFKGKAILTVDRSFSIAYMQLNSLTSEDSAVYYCARPGATVVHRTPWFAHWGQGTLVTVSA VL: EIVLTQSPALMAASPGEKVTITCSVSSSISSSNLHWFQQKSETSPKPWIFGTSYLASGVPVRFSGSGSGTSYSLTISSMEAEDAATYYCQQWNSYPLTFGAGTKLELR
2 | – | binds | binds | – | binds | binds | 1100 | 780 | – | – | – | – | no binding | HJ155 (antibody, V domains shown, murine monoclonal antibody from hybridoma; also called HJ155B (biotinylated)) VH: RVQLQQSGPGLVKPGASVKISCKASGYTFTDYYINWVRQRPGQGLEWIGWIFPGSGITYYNEKFKGKATLTVDRSSSTAYMLLSSLTSEDSAVYFCARYAYGSPFAYWGQGTLVTVSA VL: DVLMTQTPLSLPVSLGDQASISCRSSQSIVHSNGNTYLEWYLQKPGQSPKLLIYKVSNRFSGVPDRFSGSGSGTDFTLKISRVEAEDLGVYYCFQGSHVPYTFGGGTKLEIKR
